Experimental data as given in publication PMC8052261.

Target: DDX3X helicase core WT (human, UniProt O00571 132-607)
Test: fluorescence polarization

DDX3X helicase core WT, sequence (O00571 132-607): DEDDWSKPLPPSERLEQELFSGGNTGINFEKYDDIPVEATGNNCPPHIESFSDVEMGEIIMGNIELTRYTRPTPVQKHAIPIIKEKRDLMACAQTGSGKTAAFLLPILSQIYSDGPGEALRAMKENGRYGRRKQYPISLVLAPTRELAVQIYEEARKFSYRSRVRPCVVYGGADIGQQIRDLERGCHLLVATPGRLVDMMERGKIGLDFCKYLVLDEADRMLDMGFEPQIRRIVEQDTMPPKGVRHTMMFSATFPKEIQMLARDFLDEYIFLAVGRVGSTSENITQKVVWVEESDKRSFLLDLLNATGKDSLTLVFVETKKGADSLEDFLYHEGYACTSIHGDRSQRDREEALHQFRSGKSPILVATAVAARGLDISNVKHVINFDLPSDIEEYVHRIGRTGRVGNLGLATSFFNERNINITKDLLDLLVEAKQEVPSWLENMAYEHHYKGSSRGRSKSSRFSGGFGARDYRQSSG

UCUCUCUCUCUCUCUCUCUC (ssRNA) [(UC)10]: no binding.
